B1: Rv0086-40bp (dsDNA)
DNA 1: CGCCATCGCCGATATCACCGGCGTGATGCGACGGTCGCGG
DNA 2: CCGCGACCGTCGCATCACGCCGGTGATATCGGCGATGGCG
B2: Rv0010c-40bp (dsDNA)
DNA 1: CAGTGGGGATGAATCACATGCGTGTGATTGAGTGACCAAA
DNA 2: TTTGGTCACTCAATCACACGCATGTGATTCATCCCCACTG
B3: Rv3396c-40bp (dsDNA)
DNA 1: TGTGGGGTGTGCATCACCTCCGGGTGATACTGCACCCCGG
DNA 2: CCGGGGTGCAGTATCACCCGGAGGTGATGCACACCCCACA
B4: Rv0258c-40bp (dsDNA)
DNA 1: CATGGTGTCAGGATCACCCCGCTGTGATCAAAGATCAAGC
DNA 2: GCTTGATCTTTGATCACAGCGGGGTGATCCTGACACCATG
B5: Rv2434c-40bp (dsDNA)
DNA 1: GGTTCCCATGGGTATCACCTTCGTGATCGCCGGCAGCGTG
DNA 2: CACGCTGCCGGCGATCACGAAGGTGATACCCATGGGAACC
B6: Rv2044c-40bp (dsDNA)
DNA 1: TGTCGCTCACTACATCACCGGCGTGATCTATCCCGCCGGT
DNA 2: ACCGGCGGGATAGATCACGCCGGTGATGTAGTGAGCGACA
B7: Rv1733c-40bp (dsDNA)
DNA 1: GTGTTGCTGTCGATCACCCCCTCGTGATCGATCACGGTCG
DNA 2: CGACCGTGATCGATCACGAGGGGGTGATCGACAGCAACAC

For ten molecules, binding signal and binding results are on record in article PMC11205783, “HigA2 (Rv2021c) Is a Transcriptional Regulator with Multiple Regulatory Targets in Mycobacterium tuberculosis”.

One data set addresses T1, HigA2 (Mycobacterium tuberculosis H37Rv) (UniProt O53467).
T1 sequence: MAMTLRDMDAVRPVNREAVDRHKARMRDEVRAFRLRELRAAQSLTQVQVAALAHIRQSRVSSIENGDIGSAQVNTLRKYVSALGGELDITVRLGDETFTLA
The data set can be described thus: EMSA. The conditions noted are these: EMSA: 20 mM Tris-HCl, 150 mM NaCl, pH 8.0, 37 °C, 5 min, HigA2 1 uM (titrated in Fig 4); agarose or native PAGE. Pull-down: streptavidin beads, 4 °C, PBS …. For orientation: A gel shift assay detects complexes by their altered migration in electrophoresis.
higB2 40 bp showed a binding signal of 5 µM. Regarding “CGCTGCTCTTACCCGGAGGAATATCACCCTTGTGTGATATCGCGTATCGCGCTACTCTG (double strand) [seq6]”, the binding result was “binds”. Same read-out and setting: for “GGCACAGGCTACTGTTTCAACGGCCCGGGTGCGCAGAGTCCGTCCTCGCCTGCCGGCATTTCCTCGACGGTAGCCCCGTCGCCCGCTGCTCTTACCCGGAGGAATATCACCCTTGTGTGATATCGCGTATCGCGCTACTCTGCGACTCTGTGGGGTGGACGGCGGATGTGGAGCGCATCTCCGCCTGGCTCAACGGCTTGGACCGAGAGACCTACGAATTGGTGTTCGCAGCTATCG (double strand) [seq4]” the value was “binds”.

A further data set deals with T2, HigA2 (Mycobacterium tuberculosis H37Rv, UniProt O53467 1-101).
T2 sequence: T1 sequence
The data set can be described thus: EMSA; essentially complete binding; 1 uM DNA; EMSA: 20 mM Tris-HCl, 150 mM NaCl, pH 8.0, 37 °C, 5 min, HigA2 1 uM (titrated in Fig 4); agarose or native PAGE. Pull-down: streptavidin beads, 4 °C, PBS washes. The conditions noted are these: protein: recombinant; tags: C-terminal 6xHis; chain copies: 2; blunt.
For B1, the binding signal is roughly 20 µM.

B2: the binding signal is roughly 8 µM. Turning to B3, the binding signal is roughly 8 µM. Same read-out and setting: for B4 the value was roughly 5 µM. On the same count and under the same terms, the figure for B5 is roughly 20 µM. Consider B6, for which the binding signal is roughly 5 µM. Turning to B7, the binding signal is roughly 8 µM.
